Series [1] concerns the target T1, topoisomerase 2-binding protein 1 (TOPBP1) (human, UniProt Q92547 1-1522).
T1 construct: TOPBP1 in lysates of human cells, co-immunoprecipitated with Myc antibody
Briefly: co-IP with Myc antibody, Western blot. The protocol: Resuspended cells were lysed by incubation with rotation for 1 hour at 4° C. For Benzonase treatment to remove DNA, samples were incubated in the lysis buffer described above supplemented with 25 U Benzonase nuclease (Novagen, Merck Millipore) for 2 hours at 4° C. Lysates were subjected to centrifugation at 13,000 rpm for 40 minutes at 4° C. to remove cell debris. The supernatant was then transferred to a fresh cold low bind 1.5 mL tube for subsequent immunoprecipitation. For immunoprecipitation, protein lysates were incubated with antibody for the protein of interest (10 μg per mL lysate) or IgG control (Refer to Tables 4 and 5 for the list of antibodies used in this study), preincubated with Dynabeads Protein G, as per manufacturer's instructions (Life Technologies), with rotation overnight at 4° C. The following day, beads were washed three times in cold lysis buffer and separated on a magnetic rack. Proteins were then eluted from the beads by resuspension in 50 mM Glycine pH 2.8 and sodium dodecyl sulphate (SDS) sample buffer (0.2 M Tris-Cl, pH 6.8, 28% glycerol, 13.5% β-mercaptoethanol, 6% SDS, 6 mM EGTA, and 0.07% bromophenol blue) for 10 minutes at 70° C. and subjected to Western blot analysis, as described below, to detect various protein interactions. […]

A further series has as its target T2, ZNF827 full length (Homo sapiens, UniProt Q17R98 SEQ:1-1081).
T2 sequence: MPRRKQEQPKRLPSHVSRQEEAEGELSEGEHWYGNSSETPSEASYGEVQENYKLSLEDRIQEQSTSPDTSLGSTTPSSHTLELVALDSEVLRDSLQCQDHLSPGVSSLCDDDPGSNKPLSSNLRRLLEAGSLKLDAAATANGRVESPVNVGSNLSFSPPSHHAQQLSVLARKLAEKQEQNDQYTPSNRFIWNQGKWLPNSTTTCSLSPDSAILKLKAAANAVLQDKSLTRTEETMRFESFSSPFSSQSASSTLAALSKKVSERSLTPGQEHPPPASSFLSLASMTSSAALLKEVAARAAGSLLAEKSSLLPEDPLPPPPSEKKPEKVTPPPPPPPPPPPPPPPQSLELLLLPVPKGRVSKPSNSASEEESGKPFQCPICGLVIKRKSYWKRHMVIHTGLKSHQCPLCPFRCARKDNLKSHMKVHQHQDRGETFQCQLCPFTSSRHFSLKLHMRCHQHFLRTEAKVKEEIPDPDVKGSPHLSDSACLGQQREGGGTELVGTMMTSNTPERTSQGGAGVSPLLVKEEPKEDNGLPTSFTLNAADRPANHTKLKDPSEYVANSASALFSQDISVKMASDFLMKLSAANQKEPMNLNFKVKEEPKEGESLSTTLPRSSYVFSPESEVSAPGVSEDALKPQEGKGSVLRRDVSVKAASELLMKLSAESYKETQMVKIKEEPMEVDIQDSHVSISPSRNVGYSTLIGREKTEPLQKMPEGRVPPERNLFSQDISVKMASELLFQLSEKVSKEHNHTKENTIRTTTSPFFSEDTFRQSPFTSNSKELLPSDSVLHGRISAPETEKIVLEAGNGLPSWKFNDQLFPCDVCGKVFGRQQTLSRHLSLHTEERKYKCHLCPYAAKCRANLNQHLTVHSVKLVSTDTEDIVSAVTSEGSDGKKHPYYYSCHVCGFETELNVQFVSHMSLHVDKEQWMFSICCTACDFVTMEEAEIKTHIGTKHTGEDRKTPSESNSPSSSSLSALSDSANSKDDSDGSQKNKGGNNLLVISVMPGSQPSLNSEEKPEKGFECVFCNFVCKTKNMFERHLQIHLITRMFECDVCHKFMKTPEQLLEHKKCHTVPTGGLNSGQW
Description: EMSA; 0.8 mM ZnCl2, 100 mM KCl, poly(dI:dC), on ice. As to conditions: tags: HaloTag (pHTN), expressed in HEK 293T, tag removed by HaloTEV cleavage; label: 32P (gamma). The protocol: (§1) Purified proteins were quantified using a BCA assay using the Pierce™ BCA Protein Assay Kit according to the manufacturer's instructions. Equal amounts of purified proteins were incubated in binding buffer (20 mM HEPES-KOH, pH7.9, 100 mM KCl, 0.8 mM ZnCl₂, 0.2 mM EDTA, 5% glycerol, 0.5 mM DTT and 0.5 mM PMSF) with 6.25 μg/mL poly (dI:dC) and 50 ng/μL BSA on ice for 20 minutes. ˜0.12 nM (˜2.5 fmol) γ-³²P labelled DNA oligonucleotide (see Table 3) probes were added to samples and incubated on ice for another 30 minutes. Binding reactions were loaded onto an 8% native acrylamide/bisacrylamide (19:1, Biorad) gel pre-run at 100V in 0.5× TB buffer (89 mM Tris, 89 mM boric acid) for 20 minutes. Gels were electrophoresed at 150 V for 150 minutes at 4° C., dried at 65° C. for 45 minutes, and then exposed to a Phosphor screen overnight. Gel images were obtained by scanning the screens with a Typhoon FLA9500 Imager (GE Life Sciences).

The target of the next series is T3, ZNF827 ZnF4-9 deleted (Homo sapiens).
T3 chain: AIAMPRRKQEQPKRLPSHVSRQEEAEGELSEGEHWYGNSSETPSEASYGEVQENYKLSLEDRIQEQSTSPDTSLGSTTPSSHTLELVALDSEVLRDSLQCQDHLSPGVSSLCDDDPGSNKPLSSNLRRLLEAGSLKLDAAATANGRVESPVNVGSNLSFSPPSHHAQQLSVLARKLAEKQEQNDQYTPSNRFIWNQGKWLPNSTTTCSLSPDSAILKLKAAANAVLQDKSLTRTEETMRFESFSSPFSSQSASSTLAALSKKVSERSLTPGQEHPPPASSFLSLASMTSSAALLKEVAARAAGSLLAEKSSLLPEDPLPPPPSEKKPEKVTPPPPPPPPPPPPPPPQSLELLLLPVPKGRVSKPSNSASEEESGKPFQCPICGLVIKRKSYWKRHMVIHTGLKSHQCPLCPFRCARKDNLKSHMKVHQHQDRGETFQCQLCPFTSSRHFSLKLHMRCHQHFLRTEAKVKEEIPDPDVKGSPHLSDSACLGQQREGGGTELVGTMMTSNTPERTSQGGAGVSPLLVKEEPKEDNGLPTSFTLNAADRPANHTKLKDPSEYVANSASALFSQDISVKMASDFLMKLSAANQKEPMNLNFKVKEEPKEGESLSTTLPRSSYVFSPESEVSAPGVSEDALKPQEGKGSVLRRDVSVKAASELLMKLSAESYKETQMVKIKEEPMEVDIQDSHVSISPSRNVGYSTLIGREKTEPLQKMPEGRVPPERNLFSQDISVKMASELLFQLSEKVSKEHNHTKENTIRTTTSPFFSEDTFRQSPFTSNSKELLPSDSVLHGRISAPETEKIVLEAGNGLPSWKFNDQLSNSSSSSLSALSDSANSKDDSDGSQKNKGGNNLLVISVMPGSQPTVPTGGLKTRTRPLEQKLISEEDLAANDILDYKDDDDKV
The description is as above. The settings on record: tags: HaloTag (pHTN), expressed in HEK 293T, tag removed by HaloTEV cleavage; label: 32P (gamma). The protocol: as §1

For another series, the target named is T4, ZNF827 ZnF1-3 deleted (Homo sapiens, UniProt Q17R98 SEQ:4-997).
T4 chain: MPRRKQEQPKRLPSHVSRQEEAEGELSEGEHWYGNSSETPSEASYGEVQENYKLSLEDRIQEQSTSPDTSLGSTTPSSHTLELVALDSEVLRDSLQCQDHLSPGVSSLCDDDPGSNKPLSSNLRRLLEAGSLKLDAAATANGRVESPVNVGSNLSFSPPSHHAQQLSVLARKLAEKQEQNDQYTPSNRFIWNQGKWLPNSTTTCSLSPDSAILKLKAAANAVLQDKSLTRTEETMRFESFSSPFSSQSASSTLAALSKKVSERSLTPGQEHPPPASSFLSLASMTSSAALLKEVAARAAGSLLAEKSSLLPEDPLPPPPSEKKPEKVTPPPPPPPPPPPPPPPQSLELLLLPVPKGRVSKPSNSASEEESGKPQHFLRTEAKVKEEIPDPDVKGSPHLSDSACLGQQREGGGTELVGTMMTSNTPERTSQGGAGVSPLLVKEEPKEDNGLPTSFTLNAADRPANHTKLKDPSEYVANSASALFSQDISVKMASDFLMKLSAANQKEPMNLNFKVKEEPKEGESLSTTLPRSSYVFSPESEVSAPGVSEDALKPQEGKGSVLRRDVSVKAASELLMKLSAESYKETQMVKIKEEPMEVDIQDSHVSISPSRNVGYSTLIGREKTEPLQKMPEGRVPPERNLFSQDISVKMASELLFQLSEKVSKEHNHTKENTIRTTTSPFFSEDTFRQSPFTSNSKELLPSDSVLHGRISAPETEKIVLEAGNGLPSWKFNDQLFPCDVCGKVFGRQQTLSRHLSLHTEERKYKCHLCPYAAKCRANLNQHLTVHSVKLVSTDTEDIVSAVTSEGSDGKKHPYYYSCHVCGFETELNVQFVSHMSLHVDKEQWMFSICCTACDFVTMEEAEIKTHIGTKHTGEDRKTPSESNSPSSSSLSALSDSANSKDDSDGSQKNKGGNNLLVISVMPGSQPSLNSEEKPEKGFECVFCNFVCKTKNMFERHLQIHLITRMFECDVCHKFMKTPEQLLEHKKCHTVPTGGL
Briefly: EMSA; binding abrogated. The settings on record: tags: HaloTag (pHTN), expressed in HEK 293T, tag removed by HaloTEV cleavage; label: 32P (gamma). As to the method: as §1
For orientation: Mobility shift assays separate free from complexed probe on a gel.

The text below walks through data of patent US20220305003A1, “METHODS OF TREATING CANCER WITH AN INHIBITOR OF ZNF827” (CHILDREN'S MEDICAL RESEARCH INSTITUTE, priority 2019, published 2022).

T1 sequence (Q92547 whole entry): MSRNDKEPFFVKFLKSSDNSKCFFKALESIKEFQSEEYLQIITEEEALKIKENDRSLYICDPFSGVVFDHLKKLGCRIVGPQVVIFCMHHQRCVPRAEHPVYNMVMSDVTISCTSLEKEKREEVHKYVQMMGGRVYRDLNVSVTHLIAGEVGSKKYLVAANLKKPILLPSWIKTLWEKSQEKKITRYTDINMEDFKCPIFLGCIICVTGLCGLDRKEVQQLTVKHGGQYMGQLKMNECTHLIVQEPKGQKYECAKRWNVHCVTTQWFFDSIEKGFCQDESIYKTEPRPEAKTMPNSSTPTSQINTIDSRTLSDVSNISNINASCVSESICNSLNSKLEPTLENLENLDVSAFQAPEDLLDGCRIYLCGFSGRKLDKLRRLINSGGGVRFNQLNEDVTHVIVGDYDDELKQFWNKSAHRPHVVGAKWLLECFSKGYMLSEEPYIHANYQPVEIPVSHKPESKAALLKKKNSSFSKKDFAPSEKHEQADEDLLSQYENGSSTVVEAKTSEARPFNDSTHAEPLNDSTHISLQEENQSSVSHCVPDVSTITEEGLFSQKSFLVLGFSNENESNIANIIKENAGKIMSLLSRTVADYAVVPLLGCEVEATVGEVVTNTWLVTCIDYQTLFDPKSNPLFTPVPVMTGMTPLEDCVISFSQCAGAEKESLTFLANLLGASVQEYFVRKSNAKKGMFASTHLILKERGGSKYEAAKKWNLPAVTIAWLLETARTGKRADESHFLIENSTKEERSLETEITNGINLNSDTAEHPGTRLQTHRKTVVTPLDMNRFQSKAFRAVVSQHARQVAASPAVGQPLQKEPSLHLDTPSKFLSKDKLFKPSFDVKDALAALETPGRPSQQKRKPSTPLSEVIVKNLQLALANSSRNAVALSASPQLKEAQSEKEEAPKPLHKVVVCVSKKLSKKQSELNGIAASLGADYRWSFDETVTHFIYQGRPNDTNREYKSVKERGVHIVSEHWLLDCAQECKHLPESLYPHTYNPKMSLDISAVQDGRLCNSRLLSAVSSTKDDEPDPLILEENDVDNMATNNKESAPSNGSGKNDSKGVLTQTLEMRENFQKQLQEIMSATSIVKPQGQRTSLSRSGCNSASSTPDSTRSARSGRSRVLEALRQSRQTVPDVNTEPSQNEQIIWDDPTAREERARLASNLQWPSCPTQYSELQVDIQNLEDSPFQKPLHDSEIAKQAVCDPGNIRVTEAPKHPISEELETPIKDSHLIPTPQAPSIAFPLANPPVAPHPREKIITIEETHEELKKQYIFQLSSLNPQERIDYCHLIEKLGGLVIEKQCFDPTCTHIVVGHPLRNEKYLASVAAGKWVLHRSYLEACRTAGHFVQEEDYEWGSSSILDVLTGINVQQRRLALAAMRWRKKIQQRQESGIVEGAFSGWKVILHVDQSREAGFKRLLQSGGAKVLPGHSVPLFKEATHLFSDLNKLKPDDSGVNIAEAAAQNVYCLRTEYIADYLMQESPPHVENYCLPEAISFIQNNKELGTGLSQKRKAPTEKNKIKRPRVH

B1: ZNF827 full length (human zinc finger protein ZNF827) (other)
chain: T2 sequence
notes: Co-IPs used lysates of human cells (U-2 OS, HT1080) from overexpression experiments; also called Myc-DDK-tagged ZNF827 full length; pCMV6 Myc-DDK-tagged ZNF827 (RC221405); not shown: Myc-DDK tag of the pCMV6 vector
As for B1, in series [1], the binding result is “binds”.

B2: ss pentaprobe 3 (ssDNA)
DNA: CGCTCTATTCTACTGTCCTGTGCATTCAATCGTTGAGTTCGATCTAGTCTCGTCTAACCCTCCCCTGCTCCGCTGGTCTGGCCTCGCCTATCCTACCCAT
Turning to B2, the binding result was “binds” with ZNF827 full length, “binds” with ZNF827 ZnF4-9 deleted and “no binding” with ZNF827 ZnF1-3 deleted.

B3: ss pentaprobe 9 (ssDNA)
DNA: ATGGGTAGGATAGGCGAGGCCAGACCAGCGGAGCAGGGGAGGGTTAGACGAGACTAGATCGAACTCAACGATTGAATGCACAGGACAGTAGAATAGAGCG
Turning to B3, the values for the binding result with ZNF827 full length, in the series with ZNF827 ZnF4-9 deleted and with ZNF827 ZnF1-3 deleted were “binds”, “binds” and “no binding”, respectively.
